Reference: publication PMC3526285

System: TRMT10C (MRPP1, RG9MTD1) (Homo sapiens)
Experiment: EMSA
Settings: apparent Kd; EMSA: 1 nM 5'-labelled pre-tRNA, 10 nM-1.2 uM protein, methylation/processing buffer (composition not in material) + 100 mM sucrose, 30 min at room …

Substance | Kd
(mt)pre-tRNAHis | 203 nM
(mt)pre-tRNAIle | 255 nM
